Assay [1] has as its target p14ARF (ARF) (UniProt Q8N726). Kind of assay: anti-FLAG IP, ARF Western. Conditions: reference: wild-type full-length topo I (construct 6); sites S506.
In assay [2] the target is basal phosphorylated baculovirus-expressed recombinant human topo I (R-topo I) (human) (UniProt P11387). Conditions: scale: % of supercoiled plasmid converted to the relaxed form.
The target of assay [3] is hyperphosphorylated R-topo I (CK2-treated baculovirus-expressed recombinant human topo I) (human) (UniProt P11387). Conditions: scale: % of supercoiled DNA converted to the relaxed form.
Assay [4] has the same target.

Consider “topoisomerase I (topo I) (from UniProt P11387) S506A full-length topo I (construct 9)”, for which the “binding against the reference” value in assay [1] is “weaker”.

“recombinant thioredoxin-human ARF fusion protein (from UniProt Q8N726 1-132) (natural protein)”: the relaxation of supercoiled plasmid DNA by R-topo I with ARF added (about 40% without ARF) in assay [2] came out at 50. The relaxation of supercoiled plasmid DNA by R-topo I with ARF added (∼70% without ARF) in assay [3] worked out at 100. Also, the non-covalent association of R-topo I with radiolabeled plasmid DNA (DNA co-immunoprecipitated with topo I; 75 mM NaCl, 4°C), ARF added at a 1:1 molar ratio; ~60% without ARF (% of input DNA) in assay [4] worked out at 80.

The record behind these values is article PMC3608632.
